{"source": "paper PMC10823516", "origin": "cited, not measured here", "biological_target": "HER2 ECD (Homo sapiens) (UniProt P04626)", "note": "pKd: −log10 of the molar value.", "data": [{"substance": "Trastuzumab Fab Fab", "values": [{"measurement": "pKd", "result": 8.70}]}]}
